Positions of bridges follow the written chain, without caps; N, C: chain ends. Non-standard residues stand in square brackets, D forms with d. Hyp = O=C(O)[C@@H]1C[C@@H](O)CN1; Pen = CC(C)(S)[C@H](N)C(=O)O; Orn = NCCC[C@H](N)C(=O)O; Thz = O=C(O)[C@@H]1CSCN1; Dab = NCC[C@H](N)C(=O)O; Aib = CC(C)(N)C(=O)O
B1: Chem. 115 (peptide)
peptide: cyclo(C[Thz]H[dF]HWCK[Orn]AAW)
modifications: disulfide 1-7
SMILES: C[C@@H]1NC(=O)[C@H](C)NC(=O)[C@H](CCCN)NC(=O)[C@H](CCCCN)NC(=O)[C@@H]2CSSC[C@H](NC(=O)[C@H](Cc3c[nH]c4ccccc34)NC1=O)C(=O)N1CSC[C@H]1C(=O)N[C@@H](Cc1c[nH]cn1)C(=O)N[C@H](Cc1ccccc1)C(=O)N[C@@H](Cc1c[nH]cn1)C(=O)N[C@@H](Cc1c[nH]c3ccccc13)C(=O)N2
B2: Chem. 43 (peptide)
peptide: CXHFXWCXHFXW
modifications: Aib 2, 8; D-Phe 4, 10; AGP 5, 11; disulphide Cys1-Cys7; head-to-tail amide Cys1-Trp12
B3: Chem. 34 (peptide)
peptide: cyclo(C[dV]H[dF]RWC[dV]H[dF]RW)
modifications: disulfide 1-7
SMILES: CC(C)[C@H]1NC(=O)[C@@H]2CSSC[C@H](NC(=O)[C@H](Cc3c[nH]c4ccccc34)NC(=O)[C@H](CCCNC(=N)N)NC(=O)[C@@H](Cc3ccccc3)NC(=O)[C@H](Cc3c[nH]cn3)NC1=O)C(=O)N[C@H](C(C)C)C(=O)N[C@@H](Cc1c[nH]cn1)C(=O)N[C@H](Cc1ccccc1)C(=O)N[C@@H](CCCNC(=N)N)C(=O)N[C@@H](Cc1c[nH]c3ccccc13)C(=O)N2
B4: Chem. 118 (peptide)
peptide: cyclo(C[Thz]H[dF]HWCKR)
modifications: disulfide 1-7
SMILES: N=C(N)NCCC[C@@H]1NC(=O)[C@H](CCCCN)NC(=O)[C@@H]2CSSC[C@H](NC1=O)C(=O)N1CSC[C@H]1C(=O)N[C@@H](Cc1c[nH]cn1)C(=O)N[C@H](Cc1ccccc1)C(=O)N[C@@H](Cc1c[nH]cn1)C(=O)N[C@@H](Cc1c[nH]c3ccccc13)C(=O)N2
B5: Chem. 120 (peptide)
peptide: cyclo(C[Thz]H[dF]HWCAHE[Orn]R)
modifications: disulfide 1-7
SMILES: C[C@@H]1NC(=O)[C@@H]2CSSC[C@H](NC(=O)[C@H](CCCNC(=N)N)NC(=O)[C@H](CCCN)NC(=O)[C@H](CCC(=O)O)NC(=O)[C@H](Cc3c[nH]cn3)NC1=O)C(=O)N1CSC[C@H]1C(=O)N[C@@H](Cc1c[nH]cn1)C(=O)N[C@H](Cc1ccccc1)C(=O)N[C@@H](Cc1c[nH]cn1)C(=O)N[C@@H](Cc1c[nH]c3ccccc13)C(=O)N2
B6: Chem. 6 (peptide)
peptide: cyclo(CH[dF]RW[dA]CH[dF]RW[dA])
modifications: disulfide 1-7
SMILES: C[C@H]1NC(=O)[C@H](Cc2c[nH]c3ccccc23)NC(=O)[C@H](CCCNC(=N)N)NC(=O)[C@@H](Cc2ccccc2)NC(=O)[C@H](Cc2c[nH]cn2)NC(=O)[C@@H]2CSSC[C@H](NC1=O)C(=O)N[C@@H](Cc1c[nH]cn1)C(=O)N[C@H](Cc1ccccc1)C(=O)N[C@@H](CCCNC(=N)N)C(=O)N[C@@H](Cc1c[nH]c3ccccc13)C(=O)N[C@H](C)C(=O)N2
B7: Chem. 119 (peptide)
peptide: cyclo(C[Thz]H[dF]HWCA[Orn]E[Orn]R)
modifications: disulfide 1-7
SMILES: C[C@@H]1NC(=O)[C@@H]2CSSC[C@H](NC(=O)[C@H](CCCNC(=N)N)NC(=O)[C@H](CCCN)NC(=O)[C@H](CCC(=O)O)NC(=O)[C@H](CCCN)NC1=O)C(=O)N1CSC[C@H]1C(=O)N[C@@H](Cc1c[nH]cn1)C(=O)N[C@H](Cc1ccccc1)C(=O)N[C@@H](Cc1c[nH]cn1)C(=O)N[C@@H](Cc1c[nH]c3ccccc13)C(=O)N2
B8: Chem. 33 (peptide)
peptide: cyclo(C[dP]H[dF]RWC[dP]H[dF]RW)
modifications: disulfide 1-7
SMILES: N=C(N)NCCC[C@@H]1NC(=O)[C@@H](Cc2ccccc2)NC(=O)[C@H](Cc2c[nH]cn2)NC(=O)[C@H]2CCCN2C(=O)[C@@H]2CSSC[C@H](NC(=O)[C@H](Cc3c[nH]c4ccccc34)NC1=O)C(=O)N1CCC[C@@H]1C(=O)N[C@@H](Cc1c[nH]cn1)C(=O)N[C@H](Cc1ccccc1)C(=O)N[C@@H](CCCNC(=N)N)C(=O)N[C@@H](Cc1c[nH]c3ccccc13)C(=O)N2
B9: Chem. 46 (peptide)
peptide: cyclo(C[Aib]H[dF][Dab]WC[Aib]H[dF][Dab]W)
modifications: disulfide 1-7
SMILES: CC1(C)NC(=O)[C@@H]2CSSC[C@H](NC(=O)[C@H](Cc3c[nH]c4ccccc34)NC(=O)[C@H](CCN)NC(=O)[C@@H](Cc3ccccc3)NC(=O)[C@H](Cc3c[nH]cn3)NC1=O)C(=O)NC(C)(C)C(=O)N[C@@H](Cc1c[nH]cn1)C(=O)N[C@H](Cc1ccccc1)C(=O)N[C@@H](CCN)C(=O)N[C@@H](Cc1c[nH]c3ccccc13)C(=O)N2
B10: Chem. 117 (peptide)
peptide: cyclo(C[Thz]H[dF]HW[Pen]KKAAW)
modifications: disulfide 1-7
SMILES: C[C@@H]1NC(=O)[C@H](C)NC(=O)[C@H](CCCCN)NC(=O)[C@H](CCCCN)NC(=O)[C@H]2NC(=O)[C@H](Cc3c[nH]c4ccccc34)NC(=O)[C@H](Cc3c[nH]cn3)NC(=O)[C@@H](Cc3ccccc3)NC(=O)[C@H](Cc3c[nH]cn3)NC(=O)[C@@H]3CSCN3C(=O)[C@H](CSSC2(C)C)NC(=O)[C@H](Cc2c[nH]c3ccccc23)NC1=O
B11: Chem. 41 (peptide)
peptide: CXHFXWCXHFXW
modifications: Aib 2, 8; D-Phe 4, 10; Cit 5, 11; disulphide Cys1-Cys7; head-to-tail amide Cys1-Trp12
B12: Chem. 38 (peptide)
peptide: cyclo(C[Aib][Hyp][dF]RWC[Aib][Hyp][dF]RW)
modifications: disulfide 1-7
SMILES: CC1(C)NC(=O)[C@@H]2CSSC[C@H](NC(=O)[C@H](Cc3c[nH]c4ccccc34)NC(=O)[C@H](CCCNC(=N)N)NC(=O)[C@@H](Cc3ccccc3)NC(=O)[C@@H]3C[C@@H](O)CN3C1=O)C(=O)NC(C)(C)C(=O)N1C[C@H](O)C[C@H]1C(=O)N[C@H](Cc1ccccc1)C(=O)N[C@@H](CCCNC(=N)N)C(=O)N[C@@H](Cc1c[nH]c3ccccc13)C(=O)N2
B13: Chem. 114 (peptide)
peptide: cyclo(C[Thz]H[dF]HWCKA[dK]AW)
modifications: disulfide 1-7
SMILES: C[C@@H]1NC(=O)[C@H](CCCCN)NC(=O)[C@@H]2CSSC[C@H](NC(=O)[C@H](Cc3c[nH]c4ccccc34)NC(=O)[C@H](C)NC(=O)[C@@H](CCCCN)NC1=O)C(=O)N1CSC[C@H]1C(=O)N[C@@H](Cc1c[nH]cn1)C(=O)N[C@H](Cc1ccccc1)C(=O)N[C@@H](Cc1c[nH]cn1)C(=O)N[C@@H](Cc1c[nH]c3ccccc13)C(=O)N2
B14: Chem. 121 (peptide)
peptide: cyclo(CPH[dF]HWCAH[dK][dK]R)
modifications: disulfide 1-7
SMILES: C[C@@H]1NC(=O)[C@@H]2CSSC[C@H](NC(=O)[C@H](CCCNC(=N)N)NC(=O)[C@@H](CCCCN)NC(=O)[C@@H](CCCCN)NC(=O)[C@H](Cc3c[nH]cn3)NC1=O)C(=O)N1CCC[C@H]1C(=O)N[C@@H](Cc1c[nH]cn1)C(=O)N[C@H](Cc1ccccc1)C(=O)N[C@@H](Cc1c[nH]cn1)C(=O)N[C@@H](Cc1c[nH]c3ccccc13)C(=O)N2
B15: Chem. 113 (peptide)
peptide: cyclo(C[Thz]H[dF]HWCARERR)
modifications: disulfide 1-7
SMILES: C[C@@H]1NC(=O)[C@@H]2CSSC[C@H](NC(=O)[C@H](CCCNC(=N)N)NC(=O)[C@H](CCCNC(=N)N)NC(=O)[C@H](CCC(=O)O)NC(=O)[C@H](CCCNC(=N)N)NC1=O)C(=O)N1CSC[C@H]1C(=O)N[C@@H](Cc1c[nH]cn1)C(=O)N[C@H](Cc1ccccc1)C(=O)N[C@@H](Cc1c[nH]cn1)C(=O)N[C@@H](Cc1c[nH]c3ccccc13)C(=O)N2
B16: Chem. 116 (peptide)
peptide: cyclo(C[Thz]H[dF]HWC[Orn][Orn]AAW)
modifications: disulfide 1-7
SMILES: C[C@@H]1NC(=O)[C@H](C)NC(=O)[C@H](CCCN)NC(=O)[C@H](CCCN)NC(=O)[C@@H]2CSSC[C@H](NC(=O)[C@H](Cc3c[nH]c4ccccc34)NC1=O)C(=O)N1CSC[C@H]1C(=O)N[C@@H](Cc1c[nH]cn1)C(=O)N[C@H](Cc1ccccc1)C(=O)N[C@@H](Cc1c[nH]cn1)C(=O)N[C@@H](Cc1c[nH]c3ccccc13)C(=O)N2
B17: Chem. 21 (peptide)
peptide: CAHFXWCAHFXW
modifications: D-Phe 4, 10; Arg(NO2) 5, 11; disulphide Cys1-Cys7; head-to-tail amide Cys1-Trp12
B18: Chem. 86 (peptide)
peptide: cyclo(C[dK]H[dF]HWC[dK]H[dF]HW)
modifications: disulfide 1-7
SMILES: NCCCC[C@H]1NC(=O)[C@@H]2CSSC[C@H](NC(=O)[C@H](Cc3c[nH]c4ccccc34)NC(=O)[C@H](Cc3c[nH]cn3)NC(=O)[C@@H](Cc3ccccc3)NC(=O)[C@H](Cc3c[nH]cn3)NC1=O)C(=O)N[C@H](CCCCN)C(=O)N[C@@H](Cc1c[nH]cn1)C(=O)N[C@H](Cc1ccccc1)C(=O)N[C@@H](Cc1c[nH]cn1)C(=O)N[C@@H](Cc1c[nH]c3ccccc13)C(=O)N2

Experiments:
[1] = target: human melanocortin 4 receptor (human, UniProt P32245 1-332); assay: cell-based or functional assay
Chain of human melanocortin 4 receptor (P32245 whole entry): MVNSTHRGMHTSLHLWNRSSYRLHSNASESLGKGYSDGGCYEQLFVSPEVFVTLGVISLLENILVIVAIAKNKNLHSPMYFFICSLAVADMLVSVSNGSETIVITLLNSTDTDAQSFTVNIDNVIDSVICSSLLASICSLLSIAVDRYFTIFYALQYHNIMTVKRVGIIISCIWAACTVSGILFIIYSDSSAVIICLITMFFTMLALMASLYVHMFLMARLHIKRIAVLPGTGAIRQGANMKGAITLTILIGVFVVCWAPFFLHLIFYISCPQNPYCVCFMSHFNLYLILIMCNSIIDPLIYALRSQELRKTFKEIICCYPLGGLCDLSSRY

[2] = target: human melanocortin 1 receptor (human, UniProt Q01726 1-317); assay: cell-based or functional assay
Chain of human melanocortin 1 receptor (Q01726 whole entry): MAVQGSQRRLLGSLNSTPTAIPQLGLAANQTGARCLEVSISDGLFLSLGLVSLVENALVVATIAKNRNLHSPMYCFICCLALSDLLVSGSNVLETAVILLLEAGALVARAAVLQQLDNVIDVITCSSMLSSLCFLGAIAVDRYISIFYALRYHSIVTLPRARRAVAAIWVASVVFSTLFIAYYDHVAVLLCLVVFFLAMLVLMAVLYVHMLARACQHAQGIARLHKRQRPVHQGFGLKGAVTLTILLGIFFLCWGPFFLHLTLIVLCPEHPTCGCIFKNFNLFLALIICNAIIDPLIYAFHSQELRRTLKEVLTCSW

Binder	MC4R cAMP EC50 [1]	MC1R cAMP EC50 [2]
B1	0.1 nM	134 nM
B2		46.9 nM
B3		2.6 nM
B4	3.53 nM	4380 nM
B5	0.08 nM	294 nM
B6		2.35 nM
B7	0.06 nM	99.6 nM
B8		> 1 nM
B9		> 5.5 nM
B10	0.2 nM	168 nM
B11		137 nM
B12		> 3.7 nM
B13	0.04 nM	114 nM
B14	0.24 nM	189 nM
B15	0.02 nM	42.2 nM
B16	0.12 nM	231 nM
B17		> 4 nM
B18		147 nM
